According to the supplement of paper PMC7877785:
± gives the uncertainty stated by the source.

Assay: self-splicing fitness, log relative to wild type (ln ratio); higher = more splicing; Tetrahymena group I intron in knt gene, E. coli kanamycin selection, DiMSum; sequences stand for … in CUCUCU…GGAGGGAAAAGUUAUCAGGCAUGCACCUGGUAGCUAGUCUUUAAACCAAUAGAUUGCAUCGGUUUAAAAGGCAAGACCGUCAAAUUGCGGGAAAGGGGUCAACAGCCGUUCAGUACCAAGUCUCAGGGGAAACUUUGAGAUGGCCUUGCAAAGGGUAUGGUAAUAAGCUGACGGACAUGGUCCUAACCACGCAGCCAAGUCCUAAGUCAACAGAUCUUCUGUUGAUAUGGAUGCAGUUCACAGACUAAAUGUCGGUCGGGGAAGAUGUAUUCUUCUCAUAAGAUAUAGUCGGACCUCUCCUUAAUGGGAGCUAGCGGAUGAAGUGAUGCAACACUGGAGCCGCUGGGAACUAAUUUGUAUGCGAAAGUAUAUUGAUUAGUUUUGGAGUACUCGUGGUCG
How it was run: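 A randomised library covering all eight P1ex-region intron nucleotides was built with the intron in the knt kanamycin-resistance gene on pET-22b(+) and held in E. coli BL21(DE3). Cells were grown overnight at 37°C or 30°C on LB agar, with or without 25 μg/mL kanamycin, plus 100 μg/mL carbenicillin, 50 μM IPTG and 0.2% rhamnose, and pooled colonies were amplicon-sequenced on an Illumina HiSeq 2500. DiMSum fitness is the error-weighted combination of wild-type-normalised replicate fold changes, kanamycin versus none.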

| Sequence | self-splicing fitness (ln) (30 °C) | self-splicing fitness (ln) (37 °C) |
| --- | --- | --- |
| AGAGAGCAAUAUUACGAUCU | -4.39 ± 0.42 | -2.22 ± 0.2 |
| CAGAAGCAAUAUUACGUGGC | -3.7 ± 0.16 | -2.15 ± 0.15 |
| UAAAAGCAAUAUUACGAUCU | -0.413 ± 0.079 | 0.0961 ± 0.099 |
| GGAGAGCAAUAUUACGUAUC | -2.61 ± 0.34 | -0.193 ± 0.23 |
| GUAGAGCAAUAUUACGAGGG | -3.25 ± 0.27 | -2.38 ± 0.37 |
| CUAGAGCAAUAUUACGAAGU | -2.56 ± 0.26 |  |
| AGUGAGCAAUAUUACGCUUU | -4.07 ± 0.32 | -3.04 ± 0.4 |
| AAGCAGCAAUAUUACGCUUG | -2.89 ± 0.16 | -2.14 ± 0.16 |
| UACAAGCAAUAUUACGAAGG | -2.52 ± 0.11 | -1.38 ± 0.12 |
| GACAAGCAAUAUUACGUAAU | -2.61 ± 0.088 | -1.16 ± 0.081 |
| UCACAGCAAUAUUACGUAUA | -2.64 ± 0.12 | -1.37 ± 0.1 |
| CCACAGCAAUAUUACGGGGC | -3.95 ± 0.14 | -2.43 ± 0.16 |
| AGAAAGCAAUAUUACGUGGG | -3.69 ± 0.17 | -1.3 ± 0.12 |
| AUCAAGCAAUAUUACGCGGA | -2.07 ± 0.1 | -1.94 ± 0.088 |
| GACGAGCAAUAUUACGGAAU | -3.93 ± 0.28 | -0.331 ± 0.16 |
| AACCAGCAAUAUUACGAAGA | -2.02 ± 0.081 | -0.639 ± 0.082 |
| GCGAAGCAAUAUUACGUGGU | -3.09 ± 0.17 | -2.92 ± 0.2 |
| AAACAGCAAUAUUACGGUAU | -2.53 ± 0.074 | -1.58 ± 0.088 |
| CGGAAGCAAUAUUACGACCC | -0.496 ± 0.27 | -0.781 ± 0.33 |
| ACUUAGCAAUAUUACGCCCA | -1.29 ± 0.21 | -0.528 ± 0.22 |
| UGACAGCAAUAUUACGGUAG | -0.921 ± 0.067 | -0.41 ± 0.074 |
| CUCUAGCAAUAUUACGAUCU |  | -1.9 ± 0.3 |
| CAUAAGCAAUAUUACGGUGG | -1.24 ± 0.075 | -0.683 ± 0.088 |
| AGGGAGCAAUAUUACGUGAA | -3.18 ± 0.32 | -2.53 ± 0.3 |

| Sequence | self-splicing fitness (ln) (30 °C) | self-splicing fitness (ln) (37 °C) |
| --- | --- | --- |
| UAUUAGCAAUAUUACGAGCU | -2.63 ± 0.26 | 0.924 ± 0.21 |
| AGGCAGCAAUAUUACGGGUU | -3.33 ± 0.22 | -1.01 ± 0.12 |
| CGAGAGCAAUAUUACGCACG | -3.55 ± 0.29 | -1.76 ± 0.3 |
| UUGUAGCAAUAUUACGUCUC | -3.54 ± 0.17 | -1.75 ± 0.18 |
| UUAAAGCAAUAUUACGUCAC | -2.97 ± 0.16 | -1.76 ± 0.22 |
| GGUUAGCAAUAUUACGCUUA | -1.58 ± 0.13 | -0.641 ± 0.12 |
| AGGCAGCAAUAUUACGGAUU | -1.08 ± 0.077 | 0.356 ± 0.098 |
| GACGAGCAAUAUUACGUGCA | -3.06 ± 0.17 | -0.901 ± 0.16 |
| AACUAGCAAUAUUACGACCU | -0.168 ± 0.083 | 0.541 ± 0.11 |
| CUGUAGCAAUAUUACGGCUC | -2.55 ± 0.19 | -2.13 ± 0.29 |
| AAGCAGCAAUAUUACGUUUC | -3.3 ± 0.16 | -2.27 ± 0.31 |
| CAGUAGCAAUAUUACGAUAC | -3.55 ± 0.36 | -2.51 ± 0.41 |
| GACCAGCAAUAUUACGAUGA | -0.717 ± 0.071 | -0.509 ± 0.085 |
| ACGCAGCAAUAUUACGACAC | -1.83 ± 0.13 | -0.767 ± 0.16 |
| UGUCAGCAAUAUUACGGUUA | -0.384 ± 0.089 | 0.239 ± 0.087 |
| GACGAGCAAUAUUACGAUCA | -2.22 ± 0.36 | -0.86 ± 0.23 |
| CCCCAGCAAUAUUACGAAAA | -3.6 ± 0.26 | -2.57 ± 0.26 |
| CGAAAGCAAUAUUACGCACC | -1.17 ± 0.14 | -0.396 ± 0.19 |
| GUACAGCAAUAUUACGCGGC | -1.83 ± 0.34 | -2.11 ± 0.36 |
| CAGAAGCAAUAUUACGUAAA | -4.01 ± 0.31 | -1.73 ± 0.16 |
| GUGGAGCAAUAUUACGCUUU | -3.84 ± 0.32 | -2.41 ± 0.27 |
| CUAUAGCAAUAUUACGUUCU | -3.41 ± 0.35 | -3.02 ± 0.47 |
| UGAUAGCAAUAUUACGACUG | 0.053 ± 0.18 | -0.49 ± 0.17 |
| UAUGAGCAAUAUUACGCACA | -0.923 ± 0.21 | -0.282 ± 0.21 |

| Sequence | self-splicing fitness (ln) (30 °C) | self-splicing fitness (ln) (37 °C) |
| --- | --- | --- |
| CGCAAGCAAUAUUACGUUCC | -2.95 ± 0.15 | -1.06 ± 0.12 |
| GCGAAGCAAUAUUACGUAUU | -3.7 ± 0.15 | -0.392 ± 0.093 |
| UAGCAGCAAUAUUACGGAGC | -2.95 ± 0.44 | -1.74 ± 0.49 |
| CAGAAGCAAUAUUACGUCCG | 0.0183 ± 0.11 | -0.0354 ± 0.13 |
| UGGAAGCAAUAUUACGUCGC | -3.16 ± 0.45 | -2.39 ± 0.35 |
| CGCCAGCAAUAUUACGGUAA | -0.8 ± 0.069 | 0.0236 ± 0.072 |
| CUUGAGCAAUAUUACGAGUG | -1.72 ± 0.081 | -0.765 ± 0.093 |
| GCAAAGCAAUAUUACGGCAU | -0.675 ± 0.095 | 0.0956 ± 0.1 |
| GAGCAGCAAUAUUACGGAUG | -3.85 ± 0.25 | -1.73 ± 0.15 |
| GUUAAGCAAUAUUACGGAGG | -4 ± 0.23 | -1.56 ± 0.19 |
| CAAAAGCAAUAUUACGUAUU | -4.13 ± 0.18 | -2.78 ± 0.15 |
| ACUUAGCAAUAUUACGUCUA | -1.67 ± 0.16 | -1.83 ± 0.17 |
| CUAAAGCAAUAUUACGAAUU | -3.57 ± 0.29 | -3.9 ± 0.36 |
| ACGGAGCAAUAUUACGACUU | -2.69 ± 0.1 | -1.37 ± 0.11 |
| UAACAGCAAUAUUACGGCUC | -1.77 ± 0.1 | -0.836 ± 0.14 |
| UUACAGCAAUAUUACGCGUU | -3.05 ± 0.14 | -1.95 ± 0.15 |
| UUGCAGCAAUAUUACGUGUU | -3.1 ± 0.12 | -2.47 ± 0.13 |
| UAUCAGCAAUAUUACGGAUG | -1.11 ± 0.084 | 0.0808 ± 0.091 |
| AUAAAGCAAUAUUACGCUGC | -3.15 ± 0.23 | -2.59 ± 0.33 |
| AUCUAGCAAUAUUACGCGAG | -1.92 ± 0.14 | -0.183 ± 0.1 |
| GAAAAGCAAUAUUACGGUCC | -1.8 ± 0.23 | -0.588 ± 0.17 |
| UUCAAGCAAUAUUACGCAUC | -3.87 ± 0.29 | -1.81 ± 0.17 |
| UGACAGCAAUAUUACGAAUC | -3.49 ± 0.37 | -1.68 ± 0.31 |
| GUUGAGCAAUAUUACGCCCA | -1.93 ± 0.45 | -1.74 ± 0.38 |

| Sequence | self-splicing fitness (ln) (30 °C) | self-splicing fitness (ln) (37 °C) |
| --- | --- | --- |
| UGACAGCAAUAUUACGCAAC | -2.25 ± 0.29 | -1.24 ± 0.25 |
| AAAUAGCAAUAUUACGGAUA | -2.19 ± 0.2 | -1.1 ± 0.16 |
| UCACAGCAAUAUUACGGUUA | -0.541 ± 0.072 | 0.291 ± 0.08 |
| GGAAAGCAAUAUUACGAAUC | -1.73 ± 0.14 | -1.5 ± 0.17 |
| CACAAGCAAUAUUACGCCUU | -3.72 ± 0.18 | -1.34 ± 0.14 |
| AUUCAGCAAUAUUACGUCGG | -3.16 ± 0.17 | -2.28 ± 0.21 |
| UUCAAGCAAUAUUACGGGAG | -1.78 ± 0.098 | -0.95 ± 0.097 |
| GUCGAGCAAUAUUACGACAA | -1.97 ± 0.24 | -2.85 ± 0.4 |
| UGUGAGCAAUAUUACGGUAC | -3.38 ± 0.28 | -2.3 ± 0.29 |
| UGGUAGCAAUAUUACGAUUU | -1.14 ± 0.14 | -0.866 ± 0.14 |
| AUCAAGCAAUAUUACGGAGU | -2.18 ± 0.095 | -0.783 ± 0.11 |
| AAGGAGCAAUAUUACGCUGC | -3.07 ± 0.38 | -2.68 ± 0.26 |
| GUACAGCAAUAUUACGCCCC | -1.32 ± 0.2 | -0.26 ± 0.32 |
| CCUUAGCAAUAUUACGACAC | -2 ± 0.14 | -2.1 ± 0.25 |
| AAUGAGCAAUAUUACGGCGG | -4.11 ± 0.34 | -2.69 ± 0.29 |
| GACUAGCAAUAUUACGUUCU | -3.33 ± 0.26 | -0.968 ± 0.14 |
| GUUGAGCAAUAUUACGUUCC | -1.13 ± 0.26 | -1.31 ± 0.34 |
| UGACAGCAAUAUUACGCCGC | -1.26 ± 0.32 |  |
| CUGUAGCAAUAUUACGAGUG | -0.807 ± 0.07 | 0.314 ± 0.11 |
| AACGAGCAAUAUUACGGAGC | -3.72 ± 0.19 | -2.05 ± 0.15 |
| CCUCAGCAAUAUUACGAUCC | -2.43 ± 0.44 |  |
| CUCUAGCAAUAUUACGGCAA | -2.38 ± 0.2 |  |
| CCAAAGCAAUAUUACGUGGU | -3.39 ± 0.098 | -3.29 ± 0.14 |
| CAGAAGCAAUAUUACGCAAU | -4.46 ± 0.42 | -2.79 ± 0.24 |
